According to IntAct's records for PubMed 26388029:

B1: Ubiquitin carboxyl-terminal hydrolase 1 (Homo sapiens), O94782 (parent)
chain: MPGVIPSESNGLSRGSPSKKNRLSLKFFQKKETKRALDFTDSQENEEKASEYRASEIDQVVPAAQSSPINCEKRENLLPFVGLNNLGNTCYLNSILQVLYFCPGFKSGVKHLFNIISRKKEALKDEANQKDKGNCKEDSLASYELICSLQSLIISVEQLQASFLLNPEKYTDELATQPRRLLNTLRELNPMYEGYLQHDAQEVLQCILGNIQETCQLLKKEEVKNVAELPTKVEEIPHPKEEMNGINSIEMDSMRHSEDFKEKLPKGNGKRKSDTEFGNMKKKVKLSKEHQSLEENQRQTRSKRKATSDTLESPPKIIPKYISENESPRPSQKKSRVKINWLKSATKQPSILSKFCSLGKITTNQGVKGQSKENECDPEEDLGKCESDNTTNGCGLESPGNTVTPVNVNEVKPINKGEEQIGFELVEKLFQGQLVLRTRCLECESLTERREDFQDISVPVQEDELSKVEESSEISPEPKTEMKTLRWAISQFASVERIVGEDKYFCENCHHYTEAERSLLFDKMPEVITIHLKCFAASGLEFDCYGGGLSKINTPLLTPLKLSLEEWSTKPTNDSYGLFAVVMHSGITISSGHYTASVKVTDLNSLELDKGNFVVDQMCEIGKPEPLNEEEARGVVENYNDEEVSIRVGGNTQPSKVLNKKNVEAIGLLGGQKSKADYELYNKASNPDKVASTAFAENRNSETSDTTGTHESDRNKESSDQTGINISGFENKISYVVQSLKEYEGKWLLFDDSEVKVTEEKDFLNSLSPSTSPTSTPYLLFYKKL

Variants of: B1
Conditions: with WDR48, Q8TAF3-1
Chain of WDR48, Q8TAF3-1 (Q8TAF3 whole entry): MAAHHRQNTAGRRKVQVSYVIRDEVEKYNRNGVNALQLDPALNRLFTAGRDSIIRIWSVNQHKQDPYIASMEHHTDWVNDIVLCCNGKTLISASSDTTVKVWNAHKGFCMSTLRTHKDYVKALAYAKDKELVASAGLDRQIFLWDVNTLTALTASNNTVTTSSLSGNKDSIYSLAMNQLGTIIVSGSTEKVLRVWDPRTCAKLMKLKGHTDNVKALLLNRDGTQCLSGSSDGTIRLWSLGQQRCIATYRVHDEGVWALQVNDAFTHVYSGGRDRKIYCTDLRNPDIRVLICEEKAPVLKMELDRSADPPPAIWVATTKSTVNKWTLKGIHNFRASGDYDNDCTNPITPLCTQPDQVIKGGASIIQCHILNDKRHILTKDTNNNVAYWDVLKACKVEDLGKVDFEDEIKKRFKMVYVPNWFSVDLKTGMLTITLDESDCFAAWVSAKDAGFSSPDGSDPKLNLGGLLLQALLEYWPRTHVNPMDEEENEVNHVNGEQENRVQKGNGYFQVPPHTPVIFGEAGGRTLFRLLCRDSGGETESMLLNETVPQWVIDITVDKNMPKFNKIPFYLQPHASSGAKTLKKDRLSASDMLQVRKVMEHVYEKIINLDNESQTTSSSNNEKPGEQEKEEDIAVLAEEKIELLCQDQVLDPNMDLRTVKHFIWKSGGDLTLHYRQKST
For E444K, the “effect of a mutation on the interaction” value was “disrupting interaction strength”.
